Non-standard residues stand in square brackets, D forms with d. No end group written: not given here. pS = N[C@@H](COP(=O)(O)O)C(=O)O; FAM = 5'-fluorescein amidite
B1: S. cerevisiae Nrd1 CID1-152 (domain or fragment)
chain: MQQDDDFQNFVATLESFKDLKSGISGSRIKKLTTYALDHIDIESKIISLIIDYSRLCPDSHKLGSLYIIDSIGRAYLDETRSNSNSSSNKPGTCAHAINTLGEVIQELLSDAIAKSNQDHKEKIRMLLDIWDRSGLFQKSYLNAIRSKCFAM
B2: Full-length Seb1 with C-terminal His8-tag (natural protein, S. pombe, UniProt Q9UTE3 1-620, looked up)
chain: MSGIAEFDGILDSLEHSKTGISGSKILKLTNLSMENVSENAQFVASVYKYAKRAPVTHKLGALYILDSIVRSFQDGAKKNNESFENPVDASFSGGWCKAAEITDSLVADAIQHAPSAHLPKILKLCDIWEKASTFPPEKLESLRSKLKDAMASTEPVSVDSAAAPSQSTNPEGNGGSVGSQAAAPTSRPVENDAASILEALAAFAQKAPVPSAAEESVSTPPQPAVAPSVSAVVPNLPVHPATAINAQSQSGNPLSNPLFQPSNVPQSIPSGPMGMKTGSVNDTQSQQITLMNVLASQNVPPAQIDSIMKAAFPNYNAPFQPAGVGSVPLPAPTSSQSLRLGSLHRSRSPSPRSGRPRRSPSPSHLSIPSTLPPADGVPKPTPDGFPRRFERDPTIPPDSIKVYSRTLFLGGITRSVREPVLRSMFERFGSVQSLILNHNYRHGFLKMFRRDAAEKAQVAMENVPFADTTIRTKWGVGFGPRECSDFSTGISVIPIRLLTDADRTWLVTAEYGGTGGLPITPGIALDEPDIEIGLGISSKAISKRGKDFAMRRDERFRGRKPYRGGPPIHHGERHFDSGNDWHGNPSTVPPPTNPYNPGYPYMDPNYSSGYVSQPPWQPQ
notes: Seb1, S. pombe, full length; fractions containing monomeric Seb1 were used; also called Seb1(full-length)-His8; recombinant Seb1; source: E. coli Rosetta, purified (Ni-NTA, Superdex 200); not shown: His8, C-terminal, kept
B3: Rpc10, subunit of S. pombe Pol II (natural protein, UniProt P48011 1-63, looked up)
chain: MNHPTSTGGTAFNPPRPATMIYLCADCGARNTIQAKEVIRCRECGHRVMYKMRTKRMVQFEAR
notes: Rpc10, RNA polymerase subunit, S. pombe; stood in the assay as a subunit of m11; source: endogenous, S. pombe (Rpb9-Flag strain), purified as part of Pol II (anti-Flag M2 agarose, HiTrap Q)
B4: S. pombe Seb1 CID1-148 (domain or fragment)
chain: MSGIAEFDGILDSLEHSKTGISGSKILKLTNLSMENVSENAQFVASVYKYAKRAPVTHKLGALYILDSIVRSFQDGAKKNNESFENPVDASFSGGWCKAAEITDSLVADAIQHAPSAHLPKILKLCDIWEKASTFPPEKLESLRSKLK
B5: Rpb3, subunit of S. pombe Pol II (natural protein, UniProt P37382 1-297, looked up)
chain: MDSETHITIRNISKNSVDFVLTNTSLAVANSLRRVVLAEIPTVAIDLVEINVNTSVMPDEFLAHRLGMIPLDSSNIDEPPPVGLEYTRNCDCDQYCPKCSVELFLNAKCTGEGTMEIYARDLVVSSNSSLGHPILADPKSRGPLICKLRKEQEISLRCIAKKGIAKEHAKWSPTSAVAFEYDPWNKLQHTDYWFENDADAEWPKSKNADWEEPPREGEPFNFQEEPRRFYMDVESVGSIPPNEIMVQGLRILQEKLAVLVRDLDEEQPTQLSANELNMEENAEMNWSPYQNGEENTW
notes: Rpb3, RNA polymerase II subunit, S. pombe; stood in the assay as a subunit of m11; source: endogenous, S. pombe (Rpb9-Flag strain), purified as part of Pol II (anti-Flag M2 agarose, HiTrap Q)
B6: Rpb5, subunit of S. pombe Pol II (natural protein, UniProt Q09191 1-210, looked up)
chain: MSAEEKNIVRVFRAWKTAHQLVHDRGYGVSQAELDLTLDQFKAMHCGMGRNLDRTTLSFYAKPSNDSNKGTIYIEFAKEPSVGIKEMRTFVHTLGDHNHKTGILIYANSMTPSAAKIIATVTGQFTIETFQESDLIVNITHHELVPKHILLSPDEKKELLDRYKLRETQLPRIQLADPVARYLGLKRGEVVKIVRRSETSGRYNSYRICA
notes: Rpb5, RNA polymerase subunit, S. pombe; stood in the assay as a subunit of m11; source: endogenous, S. pombe (Rpb9-Flag strain), purified as part of Pol II (anti-Flag M2 agarose, HiTrap Q)
B7: Rpb4, subunit of S. pombe Pol II (natural protein, UniProt O74825 1-135, looked up)
chain: MPRAIFEEDAAQLKLGPEFENEDMLTVSEAKILIETVLAQRARETNGEIPMTDVMKKTVAYFNVFARFKTAEATYACERILGNRFHKFERAQLGTLCCEDAEEARTLIPSLANKIDDQNLQGILDELSTLRKFQD
notes: Rpb4, RNA polymerase II subunit, S. pombe; stood in the assay as a subunit of m11; source: endogenous, S. pombe (Rpb9-Flag strain), purified as part of Pol II (anti-Flag M2 agarose, HiTrap Q)
B8: S. cerevisiae Rtt103 CID (domain or fragment)
chain: MPFSSEQFTTKLNTLEDSQESISSASKWLLLQYRDAPKVAEMWKEYMLRPSVNTRRKLLGLYLMNHVVQQAKGQKIIQFQDSFGKVAAEVLGRINQEFPRDLKKKLSRVVNILKERNIFSKQVVNDIERSLKTESSPVEALVLPQKLKDFAKDYEKLVKMHH
B9: Rpb7, subunit of S. pombe Pol II (natural protein, UniProt O14459 1-172, looked up)
chain: MPFFLKELSLTISLHPSYFGPRMQDYLKAKLLADVEGTCSGQYGYIICVLDSNTIDIDKGRVVPGQGFAEFEVKYRAVLWRPFRGEVVDAIVTTVNKMGFFANIGPLNVFVSSHLVPPDMKFDPTANPPNYSGEDQVIEKGSNVRLKIVGTRTDATEIFAIATMKEDYLGVL
notes: Rpb7, RNA polymerase II subunit, S. pombe; stood in the assay as a subunit of m11; source: endogenous, S. pombe (Rpb9-Flag strain), purified as part of Pol II (anti-Flag M2 agarose, HiTrap Q)

Columns and labels:
[1] = biological target: T1, S. cerevisiae Pcf11 CID1-144 (S. cerevisiae, UniProt P39081 1-144); assay: FP
T1 chain: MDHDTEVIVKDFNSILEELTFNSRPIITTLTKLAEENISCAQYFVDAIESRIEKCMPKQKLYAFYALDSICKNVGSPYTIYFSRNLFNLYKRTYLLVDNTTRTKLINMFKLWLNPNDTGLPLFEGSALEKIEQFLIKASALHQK

[2] = biological target: B1; assay: FP
S. cerevisiae Rtt103 CID = biological target: B8; assay: FP
S. pombe Seb1 CID1-148 = biological target: B4; assay: FP
[3] = biological target: T2, S. pombe Pcf11 CID1-139 with an N-terminal His6-SUMO tag (S. pombe); assay: FP
T2 chain: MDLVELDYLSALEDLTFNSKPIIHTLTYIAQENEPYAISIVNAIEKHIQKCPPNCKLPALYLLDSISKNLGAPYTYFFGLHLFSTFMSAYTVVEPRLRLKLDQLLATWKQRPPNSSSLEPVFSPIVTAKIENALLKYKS

Double-repeated Ser5P = biological target: T3, Double-repeated Ser5P (Schizosaccharomyces pombe); assay: FP
T3 chain: {FAM}-YSPT[pS]PSYSPT[pS]PS

[4] = biological target: T4, Rpb2, subunit of S. pombe Pol II (S. pombe, UniProt Q02061 1-1210); assay: cross-linking; BS3 lysine-lysine cross-linking of reconstituted Seb1:Pol II (6:1 or 4:1 molar ratio) in CB buffer (50 mM HEPES pH 7.6, 150 mM NaCl), 30 min at 4 °C, mass spectrometry (pLink); conditions: both partners purified
T4 construct: Rpb2, RNA polymerase II subunit, S. pombe; stood in the assay as a subunit of m11; source: endogenous, S. pombe (Rpb9-Flag strain), purified as part of Pol II (anti-Flag M2 agarose, HiTrap Q)

[5] = biological target: T5, Rpb1, subunit of S. pombe Pol II (S. pombe, UniProt P36594 1-1752, CTD phosphorylated (Thr4P, Tyr1P, Ser2P, Ser5P detected by western blot)); assay: as above; conditions: both partners purified
T5 construct: Rpb1, largest subunit of RNA polymerase II, S. pombe; stood in the assay as a subunit of m11; source: endogenous, S. pombe (Rpb9-Flag strain), purified as part of Pol II (anti-Flag M2 agarose)

[6] = biological target: B2; assay: as above; conditions: both partners purified

T4 sequence (Q02061 whole entry): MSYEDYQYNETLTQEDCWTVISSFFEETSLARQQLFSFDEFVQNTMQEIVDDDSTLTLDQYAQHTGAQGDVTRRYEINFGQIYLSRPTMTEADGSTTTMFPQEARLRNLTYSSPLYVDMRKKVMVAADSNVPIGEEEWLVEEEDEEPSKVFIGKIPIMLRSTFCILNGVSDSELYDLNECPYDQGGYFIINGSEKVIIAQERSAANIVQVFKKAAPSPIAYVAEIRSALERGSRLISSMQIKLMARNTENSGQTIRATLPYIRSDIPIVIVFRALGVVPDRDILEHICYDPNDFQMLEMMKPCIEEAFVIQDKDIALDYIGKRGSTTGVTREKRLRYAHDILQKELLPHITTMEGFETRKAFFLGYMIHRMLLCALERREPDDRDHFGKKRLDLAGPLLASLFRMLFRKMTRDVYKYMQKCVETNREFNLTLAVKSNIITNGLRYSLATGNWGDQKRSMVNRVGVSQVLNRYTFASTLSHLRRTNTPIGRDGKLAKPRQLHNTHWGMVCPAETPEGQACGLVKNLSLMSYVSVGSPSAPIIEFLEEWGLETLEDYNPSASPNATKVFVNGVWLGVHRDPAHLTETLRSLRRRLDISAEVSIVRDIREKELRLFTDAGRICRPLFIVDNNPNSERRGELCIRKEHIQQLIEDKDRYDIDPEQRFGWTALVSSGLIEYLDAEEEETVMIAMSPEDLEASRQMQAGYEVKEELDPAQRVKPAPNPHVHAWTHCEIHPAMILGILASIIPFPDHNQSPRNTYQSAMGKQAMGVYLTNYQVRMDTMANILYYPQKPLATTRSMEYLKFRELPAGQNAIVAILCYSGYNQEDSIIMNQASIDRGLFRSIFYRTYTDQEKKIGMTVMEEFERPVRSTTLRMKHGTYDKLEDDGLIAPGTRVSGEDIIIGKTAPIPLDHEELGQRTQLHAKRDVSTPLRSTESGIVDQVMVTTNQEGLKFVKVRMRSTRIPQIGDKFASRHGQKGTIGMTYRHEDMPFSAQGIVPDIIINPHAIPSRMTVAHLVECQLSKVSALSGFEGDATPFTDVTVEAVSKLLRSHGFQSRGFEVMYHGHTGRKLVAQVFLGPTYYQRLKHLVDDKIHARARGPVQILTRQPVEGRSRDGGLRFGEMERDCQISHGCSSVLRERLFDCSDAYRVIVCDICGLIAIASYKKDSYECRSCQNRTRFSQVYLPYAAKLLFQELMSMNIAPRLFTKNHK
T5 sequence (P36594 whole entry): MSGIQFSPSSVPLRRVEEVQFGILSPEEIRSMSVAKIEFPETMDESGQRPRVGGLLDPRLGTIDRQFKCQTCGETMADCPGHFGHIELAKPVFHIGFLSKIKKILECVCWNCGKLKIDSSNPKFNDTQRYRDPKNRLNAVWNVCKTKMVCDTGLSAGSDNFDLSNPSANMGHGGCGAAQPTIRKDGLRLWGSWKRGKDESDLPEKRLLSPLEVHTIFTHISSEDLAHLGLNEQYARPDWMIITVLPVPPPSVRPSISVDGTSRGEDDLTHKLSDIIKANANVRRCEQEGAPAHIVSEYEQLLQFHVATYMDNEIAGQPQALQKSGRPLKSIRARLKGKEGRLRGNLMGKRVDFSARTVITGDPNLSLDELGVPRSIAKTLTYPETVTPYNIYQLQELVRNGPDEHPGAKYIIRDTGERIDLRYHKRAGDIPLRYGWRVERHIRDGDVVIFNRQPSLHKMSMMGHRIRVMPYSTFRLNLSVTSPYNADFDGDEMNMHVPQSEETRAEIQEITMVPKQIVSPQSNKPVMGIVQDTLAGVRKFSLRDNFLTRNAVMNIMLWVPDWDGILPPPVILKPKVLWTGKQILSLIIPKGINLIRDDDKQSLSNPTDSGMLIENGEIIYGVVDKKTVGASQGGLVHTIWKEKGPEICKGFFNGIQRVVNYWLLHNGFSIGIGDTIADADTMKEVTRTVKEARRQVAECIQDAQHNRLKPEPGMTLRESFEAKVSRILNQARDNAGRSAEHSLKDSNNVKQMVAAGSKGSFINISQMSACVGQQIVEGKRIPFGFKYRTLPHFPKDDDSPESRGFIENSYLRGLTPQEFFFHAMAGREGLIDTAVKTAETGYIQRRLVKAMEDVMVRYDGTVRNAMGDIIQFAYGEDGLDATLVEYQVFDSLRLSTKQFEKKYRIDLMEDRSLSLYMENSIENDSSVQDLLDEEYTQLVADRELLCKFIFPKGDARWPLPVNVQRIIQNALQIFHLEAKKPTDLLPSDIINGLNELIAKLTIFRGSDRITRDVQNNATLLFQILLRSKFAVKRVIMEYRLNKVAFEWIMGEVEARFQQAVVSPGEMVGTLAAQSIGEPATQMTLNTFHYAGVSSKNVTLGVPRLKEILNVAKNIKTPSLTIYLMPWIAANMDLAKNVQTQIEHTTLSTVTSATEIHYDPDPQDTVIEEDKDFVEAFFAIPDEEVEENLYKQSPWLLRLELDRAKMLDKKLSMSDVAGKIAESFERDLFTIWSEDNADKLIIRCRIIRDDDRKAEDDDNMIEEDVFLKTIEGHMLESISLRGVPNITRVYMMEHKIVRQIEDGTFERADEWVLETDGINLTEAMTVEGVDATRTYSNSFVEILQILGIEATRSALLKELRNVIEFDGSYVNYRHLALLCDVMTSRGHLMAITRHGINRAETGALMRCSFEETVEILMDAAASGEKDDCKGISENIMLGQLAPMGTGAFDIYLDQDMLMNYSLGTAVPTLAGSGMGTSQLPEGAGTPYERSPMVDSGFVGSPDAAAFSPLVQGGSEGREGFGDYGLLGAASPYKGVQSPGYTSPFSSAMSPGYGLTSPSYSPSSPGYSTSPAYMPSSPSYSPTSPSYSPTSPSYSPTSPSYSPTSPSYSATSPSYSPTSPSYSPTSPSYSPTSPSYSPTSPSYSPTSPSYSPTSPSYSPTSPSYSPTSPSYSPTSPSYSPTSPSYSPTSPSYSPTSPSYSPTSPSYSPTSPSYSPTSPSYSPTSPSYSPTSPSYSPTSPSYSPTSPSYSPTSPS

{FAM}-YSPTSPSYSPTSPS (also: phospho-Ser2 of heptad, which repeat not given here) [FAM-labeled two-repeat CTD peptide, Ser2P] gave a Kd [1] of 127 µM, a Kd [2] of 126 µM and a Kd (S. cerevisiae Rtt103 CID) of 32.3 µM. The Kd (S. pombe Seb1 CID1-148) was 72.3 µM and the Kd [3] was 48.1 µM.

Binder B1 has a Kd (Double-repeated Ser5P) of 65.8 µM.

B2: binds [4]; binds [5].

B3: binds [6].

For B4, the Kd (Double-repeated Ser5P) was 281 µM.

B5: binds [6].

B6: binds [6].

B7: binds [6].

For B8, the Kd (Double-repeated Ser5P) was > 1000 µM.

B9: binds [6].

From PMC6180485, “Elongation/Termination Factor Exchange Mediated by PP1 Phosphatase Orchestrates Transcription Termination” (Cell Reports, 2018)
